# In article PMC9482650, “Quantitative fragmentomics allow affinity mapping of interactomes” (Nature Communications, 2022):
# T1: DFNB31_1, Q9P202
# T1 sequence (Q9P202 135-233, limits assumed, looked up): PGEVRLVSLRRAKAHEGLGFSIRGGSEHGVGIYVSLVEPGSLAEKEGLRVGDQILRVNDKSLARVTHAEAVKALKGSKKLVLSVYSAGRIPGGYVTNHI
# T2: PTPN13_1, Q12923
# T2 sequence (Q12923 1088-1188, limits assumed, looked up): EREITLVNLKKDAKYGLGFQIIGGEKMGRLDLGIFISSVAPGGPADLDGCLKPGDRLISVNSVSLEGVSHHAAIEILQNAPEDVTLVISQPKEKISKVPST
# T3: SNTG2, Q9NY99
# T3 sequence (Q9NY99 68-166, limits assumed, looked up): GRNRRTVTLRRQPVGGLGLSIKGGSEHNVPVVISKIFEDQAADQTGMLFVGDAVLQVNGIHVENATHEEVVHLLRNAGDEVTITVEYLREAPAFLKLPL
# T4: PDZD7_3, Q9H5P4
# T4 sequence (Q9H5P4 857-944, limits assumed, looked up): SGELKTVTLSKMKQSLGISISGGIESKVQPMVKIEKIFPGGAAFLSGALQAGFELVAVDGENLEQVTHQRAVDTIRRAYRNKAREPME
# T5: PARD3B_1, Q8TEW8
# T5 sequence (Q8TEW8 196-299, limits assumed, looked up): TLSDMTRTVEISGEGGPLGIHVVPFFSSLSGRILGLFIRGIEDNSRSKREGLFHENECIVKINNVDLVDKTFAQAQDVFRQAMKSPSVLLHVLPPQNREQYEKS
# T6: SHANK1, Q9Y566
# T6 sequence (Q9Y566 658-767, limits assumed, looked up): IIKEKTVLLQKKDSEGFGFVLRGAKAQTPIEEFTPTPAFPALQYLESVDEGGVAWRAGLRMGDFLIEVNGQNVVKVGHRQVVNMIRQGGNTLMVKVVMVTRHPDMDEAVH
# T7: DLG3_3, Q92796
# T7 sequence (Q92796 374-475, limits assumed, looked up): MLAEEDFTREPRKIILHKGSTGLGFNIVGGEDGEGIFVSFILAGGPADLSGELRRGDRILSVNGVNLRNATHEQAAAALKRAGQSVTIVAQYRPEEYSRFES
# T8: SIPA1L2, Q9P2F8
# T8 sequence (Q9P2F8 945-1036, limits assumed, looked up): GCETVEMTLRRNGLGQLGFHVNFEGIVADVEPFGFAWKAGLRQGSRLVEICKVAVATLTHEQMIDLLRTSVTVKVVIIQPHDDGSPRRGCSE
# T9: MPP2, Q14168
# T9 sequence (Q14168 180-250, limits assumed, looked up): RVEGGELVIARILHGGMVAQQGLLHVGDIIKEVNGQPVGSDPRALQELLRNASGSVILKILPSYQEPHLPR
# T10: GRIP1_4, Q9Y3R0
# T10 sequence (Q9Y3R0 467-571, limits assumed, looked up): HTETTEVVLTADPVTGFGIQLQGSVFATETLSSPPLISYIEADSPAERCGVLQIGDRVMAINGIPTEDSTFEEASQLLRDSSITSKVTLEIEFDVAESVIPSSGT
# T11: LNX2_2, Q8N448
# T11 sequence (Q8N448 334-432, limits assumed, looked up): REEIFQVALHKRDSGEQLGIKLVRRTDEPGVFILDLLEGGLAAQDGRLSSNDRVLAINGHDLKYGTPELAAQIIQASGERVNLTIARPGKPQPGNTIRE
# B1: TRAF2, Q12933 (peptide)
# chain: IKAIVDLTGL
# B2: CAVIN3, Q969G5 (peptide)
# chain: EALLQMESVA
# B3: PDGFRB, P09619 (peptide)
# chain: PRAEAEDSFL
# B4: GOT1L1, Q8NHS2 (peptide)
# chain: EKKTLIGIKL
# Target: NHERF4_2, Q86UT5
# Sequence (Q86UT5 220-308): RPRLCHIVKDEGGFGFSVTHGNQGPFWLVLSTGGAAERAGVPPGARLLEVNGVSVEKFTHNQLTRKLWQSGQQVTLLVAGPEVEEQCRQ
# Experiment: holdup assay
# Set-up: key: below the threshold = too weak to quantify, mostly under pKd 3.1 to 4
# Conditions: plain residues with an end cap or a label only (N-terminal biotin on a linker: ado-ado)
row,Binder,pKd
1,B1,below the threshold
2,B2,below the threshold
3,B3,3.66
4,B4,below the threshold

# Target: NHERF2_2, Q15599
# Sequence (Q15599 142-238): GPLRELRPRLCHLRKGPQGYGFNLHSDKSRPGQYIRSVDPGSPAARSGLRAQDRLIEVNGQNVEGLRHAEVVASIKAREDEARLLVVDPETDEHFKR
# Experiment: holdup assay
# Set-up: key: below the threshold = too weak to quantify, mostly under pKd 3.1 to 4
# Conditions: plain residues with an end cap or a label only (N-terminal biotin on a linker: ado-ado)
row,Binder,pKd
1,B1,3.91
2,B2,below the threshold
3,B3,5.05
4,B4,3.64

# Target: Inadl_9, Q8NI35
# Sequence (Q8NI35 1530-1615): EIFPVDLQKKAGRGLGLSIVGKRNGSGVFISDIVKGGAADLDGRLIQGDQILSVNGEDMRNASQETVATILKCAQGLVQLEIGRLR
# Experiment: holdup assay
# Set-up: key: below the threshold = too weak to quantify, mostly under pKd 3.1 to 4
# Conditions: plain residues with an end cap or a label only (N-terminal biotin on a linker: ado-ado)
row,Binder,pKd
1,B1,below the threshold
2,B2,below the threshold
3,B3,below the threshold
4,B4,below the threshold

# Target: CASK, O14936
# Sequence (O14936 487-570): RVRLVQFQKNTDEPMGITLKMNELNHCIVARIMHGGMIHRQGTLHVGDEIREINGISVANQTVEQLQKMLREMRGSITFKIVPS
# Experiment: holdup assay
# Set-up: key: below the threshold = too weak to quantify, mostly under pKd 3.1 to 4
# Conditions: plain residues with an end cap or a label only (N-terminal biotin on a linker: ado-ado)
row,Binder,pKd
1,B1,below the threshold
2,B2,below the threshold
3,B3,below the threshold
4,B4,below the threshold

# Target: T1, DFNB31_1, Q9P202
# Experiment: holdup assay
# Set-up: key: below the threshold = too weak to quantify, mostly under pKd 3.1 to 4
# Conditions: plain residues with an end cap or a label only (N-terminal biotin on a linker: ado-ado)
row,Binder,pKd
1,B1,below the threshold
2,B2,below the threshold
3,B3,3.62
4,B4,below the threshold

# Target: LNX1_1, Q8TBB1
# Sequence (Q8TBB1 261-371): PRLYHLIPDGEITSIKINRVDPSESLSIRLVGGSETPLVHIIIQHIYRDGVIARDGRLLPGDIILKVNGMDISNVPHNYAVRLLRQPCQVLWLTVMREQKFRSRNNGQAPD
# Experiment: holdup assay
# Set-up: key: below the threshold = too weak to quantify, mostly under pKd 3.1 to 4
# Conditions: plain residues with an end cap or a label only (N-terminal biotin on a linker: ado-ado)
row,Binder,pKd
1,B1,below the threshold
2,B2,3.81
3,B3,3.83
4,B4,below the threshold

# Target: SCRIB_3, Q14160
# Sequence (Q14160 999-1103): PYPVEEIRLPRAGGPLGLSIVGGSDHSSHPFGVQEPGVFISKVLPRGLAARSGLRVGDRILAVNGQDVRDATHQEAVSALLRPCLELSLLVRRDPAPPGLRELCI
# Experiment: holdup assay
# Set-up: key: below the threshold = too weak to quantify, mostly under pKd 3.1 to 4
# Conditions: plain residues with an end cap or a label only (N-terminal biotin on a linker: ado-ado)
row,Binder,pKd
1,B1,below the threshold
2,B2,below the threshold
3,B3,4.06
4,B4,below the threshold

# Target: T2, PTPN13_1, Q12923
# Experiment: holdup assay
# Set-up: key: below the threshold = too weak to quantify, mostly under pKd 3.1 to 4
# Conditions: plain residues with an end cap or a label only (N-terminal biotin on a linker: ado-ado)
row,Binder,pKd
1,B1,below the threshold
2,B2,below the threshold
3,B3,below the threshold
4,B4,3.63

# Target: NHERF4_1, Q86UT5-2
# Sequence (Q86UT5 other isoform, or with tags, fused parts or gaps): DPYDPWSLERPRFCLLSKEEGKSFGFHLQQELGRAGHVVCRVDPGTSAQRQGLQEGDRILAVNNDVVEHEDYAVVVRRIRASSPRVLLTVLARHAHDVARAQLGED
# Experiment: holdup assay
# Set-up: key: below the threshold = too weak to quantify, mostly under pKd 3.1 to 4
# Conditions: plain residues with an end cap or a label only (N-terminal biotin on a linker: ado-ado)
row,Binder,pKd
1,B1,3.76
2,B2,3.59
3,B3,3.89
4,B4,3.81

# Target: T3, SNTG2, Q9NY99
# Experiment: holdup assay
# Set-up: key: below the threshold = too weak to quantify, mostly under pKd 3.1 to 4
# Conditions: plain residues with an end cap or a label only (N-terminal biotin on a linker: ado-ado)
row,Binder,pKd
1,B1,below the threshold
2,B2,below the threshold
3,B3,below the threshold
4,B4,below the threshold

# Target: FRMPD4, Q14CM0
# Sequence (Q14CM0 67-160): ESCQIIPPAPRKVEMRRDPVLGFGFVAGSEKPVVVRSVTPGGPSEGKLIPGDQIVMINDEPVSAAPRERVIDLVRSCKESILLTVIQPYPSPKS
# Experiment: holdup assay
# Set-up: key: below the threshold = too weak to quantify, mostly under pKd 3.1 to 4
# Conditions: plain residues with an end cap or a label only (N-terminal biotin on a linker: ado-ado)
row,Binder,pKd
1,B1,3.7
2,B2,below the threshold
3,B3,4.57
4,B4,4.47

# Target: T4, PDZD7_3, Q9H5P4
# Experiment: holdup assay
# Set-up: key: below the threshold = too weak to quantify, mostly under pKd 3.1 to 4
# Conditions: plain residues with an end cap or a label only (N-terminal biotin on a linker: ado-ado)
row,Binder,pKd
1,B1,below the threshold
2,B2,below the threshold
3,B3,3.56
4,B4,below the threshold

# Target: T5, PARD3B_1, Q8TEW8
# Experiment: holdup assay
# Set-up: key: below the threshold = too weak to quantify, mostly under pKd 3.1 to 4
# Conditions: plain residues with an end cap or a label only (N-terminal biotin on a linker: ado-ado)
row,Binder,pKd
1,B1,below the threshold
2,B2,below the threshold
3,B3,4.55
4,B4,4.74

# Target: MAGI1_1, Q96QZ7
# Sequence (Q96QZ7 1-106): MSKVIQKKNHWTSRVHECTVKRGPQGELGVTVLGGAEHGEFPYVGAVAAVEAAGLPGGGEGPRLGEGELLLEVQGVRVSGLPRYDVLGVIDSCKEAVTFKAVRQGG
# Experiment: holdup assay
# Set-up: key: below the threshold = too weak to quantify, mostly under pKd 3.1 to 4
# Conditions: plain residues with an end cap or a label only (N-terminal biotin on a linker: ado-ado)
row,Binder,pKd
1,B1,below the threshold
2,B2,below the threshold
3,B3,3.58
4,B4,below the threshold

# Target: T6, SHANK1, Q9Y566
# Experiment: holdup assay
# Set-up: key: below the threshold = too weak to quantify, mostly under pKd 3.1 to 4
# Conditions: plain residues with an end cap or a label only (N-terminal biotin on a linker: ado-ado)
row,Binder,pKd
1,B1,3.49
2,B2,below the threshold
3,B3,3.51
4,B4,below the threshold

# Target: IL16_1, Q14005
# Sequence (Q14005 210-306): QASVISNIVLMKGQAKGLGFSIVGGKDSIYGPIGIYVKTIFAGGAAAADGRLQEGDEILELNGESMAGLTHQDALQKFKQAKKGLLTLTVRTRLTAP
# Experiment: holdup assay
# Set-up: key: below the threshold = too weak to quantify, mostly under pKd 3.1 to 4
# Conditions: plain residues with an end cap or a label only (N-terminal biotin on a linker: ado-ado)
row,Binder,pKd
1,B1,below the threshold
2,B2,below the threshold
3,B3,below the threshold
4,B4,below the threshold

# Target: T7, DLG3_3, Q92796
# Experiment: holdup assay
# Set-up: key: below the threshold = too weak to quantify, mostly under pKd 3.1 to 4
# Conditions: plain residues with an end cap or a label only (N-terminal biotin on a linker: ado-ado)
row,Binder,pKd
1,B1,below the threshold
2,B2,below the threshold
3,B3,below the threshold
4,B4,below the threshold

# Target: T8, SIPA1L2, Q9P2F8
# Experiment: holdup assay
# Set-up: key: below the threshold = too weak to quantify, mostly under pKd 3.1 to 4
# Conditions: plain residues with an end cap or a label only (N-terminal biotin on a linker: ado-ado)
row,Binder,pKd
1,B1,below the threshold
2,B2,below the threshold
3,B3,below the threshold
4,B4,below the threshold

# Target: GRID2IP_2, A4D2P6
# Sequence (A4D2P6 272-370): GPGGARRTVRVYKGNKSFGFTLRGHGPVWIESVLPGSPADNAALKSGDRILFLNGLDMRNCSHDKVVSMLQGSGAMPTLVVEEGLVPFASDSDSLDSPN
# Experiment: holdup assay
# Set-up: key: below the threshold = too weak to quantify, mostly under pKd 3.1 to 4
# Conditions: plain residues with an end cap or a label only (N-terminal biotin on a linker: ado-ado)
row,Binder,pKd
1,B1,below the threshold
2,B2,below the threshold
3,B3,3.84
4,B4,below the threshold

# Target: T9, MPP2, Q14168
# Experiment: holdup assay
# Set-up: key: below the threshold = too weak to quantify, mostly under pKd 3.1 to 4
# Conditions: plain residues with an end cap or a label only (N-terminal biotin on a linker: ado-ado)
row,Binder,pKd
1,B1,below the threshold
2,B2,below the threshold
3,B3,below the threshold
4,B4,below the threshold

# Target: T10, GRIP1_4, Q9Y3R0
# Experiment: holdup assay
# Set-up: key: below the threshold = too weak to quantify, mostly under pKd 3.1 to 4
# Conditions: plain residues with an end cap or a label only (N-terminal biotin on a linker: ado-ado)
row,Binder,pKd
1,B1,below the threshold
2,B2,below the threshold
3,B3,below the threshold
4,B4,below the threshold

# Target: GRASP, Q7Z6J2
# Sequence (Q7Z6J2 96-193): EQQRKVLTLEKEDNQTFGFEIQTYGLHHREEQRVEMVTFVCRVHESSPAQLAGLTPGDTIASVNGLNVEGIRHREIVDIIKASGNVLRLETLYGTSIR
# Experiment: holdup assay
# Set-up: key: below the threshold = too weak to quantify, mostly under pKd 3.1 to 4
# Conditions: plain residues with an end cap or a label only (N-terminal biotin on a linker: ado-ado)
row,Binder,pKd
1,B1,3.94
2,B2,below the threshold
3,B3,3.58
4,B4,below the threshold

# Target: LDB3, O75112
# Sequence (O75112 1-94): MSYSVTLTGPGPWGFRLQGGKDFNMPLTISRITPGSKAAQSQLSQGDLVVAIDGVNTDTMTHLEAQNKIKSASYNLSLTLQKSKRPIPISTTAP
# Experiment: holdup assay
# Set-up: key: below the threshold = too weak to quantify, mostly under pKd 3.1 to 4
# Conditions: plain residues with an end cap or a label only (N-terminal biotin on a linker: ado-ado)
row,Binder,pKd
1,B1,below the threshold
2,B2,below the threshold
3,B3,3.67
4,B4,below the threshold

# Target: T11, LNX2_2, Q8N448
# Experiment: holdup assay
# Set-up: key: below the threshold = too weak to quantify, mostly under pKd 3.1 to 4
# Conditions: plain residues with an end cap or a label only (N-terminal biotin on a linker: ado-ado)
row,Binder,pKd
1,B1,below the threshold
2,B2,below the threshold
3,B3,3.54
4,B4,below the threshold

# Target: MAGI2_6, Q86UL8
# Sequence (Q86UL8 1141-1229): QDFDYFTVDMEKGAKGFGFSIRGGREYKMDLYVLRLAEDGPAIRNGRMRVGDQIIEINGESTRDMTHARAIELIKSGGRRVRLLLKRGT
# Experiment: holdup assay
# Set-up: key: below the threshold = too weak to quantify, mostly under pKd 3.1 to 4
# Conditions: plain residues with an end cap or a label only (N-terminal biotin on a linker: ado-ado)
row,Binder,pKd
1,B1,below the threshold
2,B2,below the threshold
3,B3,4.26
4,B4,below the threshold

# Target: ARHGEF12, Q9NZN5-2
# Sequence (Q9NZN5 other isoform, or with tags, fused parts or gaps): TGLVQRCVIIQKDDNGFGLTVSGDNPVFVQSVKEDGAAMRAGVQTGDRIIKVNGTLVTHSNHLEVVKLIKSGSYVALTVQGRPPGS
# Experiment: holdup assay
# Set-up: key: below the threshold = too weak to quantify, mostly under pKd 3.1 to 4
# Conditions: plain residues with an end cap or a label only (N-terminal biotin on a linker: ado-ado)
row,Binder,pKd
1,B1,3.5
2,B2,3.63
3,B3,3.63
4,B4,3.64
